Measured values from article PMC8233210, “The archaeal triphosphate tunnel metalloenzyme SaTTM defines structural determinants for the diverse activities in the CYTH protein family” (The Journal of Biological Chemistry, 2021).

B1: Sulfolobus acidocaldarius triphosphate tunnel metalloenzyme (SaTTM) (enzyme, Sulfolobus acidocaldarius DSM 639, UniProt Q4JAT2 1-185, looked up)
chain: MSYIEREIKLRVISPSLEEIEERIRNNYTFINEEHQIDIYYNNPIRDFRKSDEALRLRNTNGKVILTYKGPKQSKETKTREEIEVEVSDLHKMDLILRKLGFIRSFQVEKIRKNYKYADFIISLDSIKELGEFIEIEGINKTEKELISFVDEFVKKHQIQYEKTIKSYLELLVEHAKKTNNSNTH
notes: SaTTM (Saci_0718), CYTH ortholog of Sulfolobus acidocaldarius DSM 639; ORF amplified from the genome and cloned NcoI/BamHI into pSA4 to give pSVA1028; No step that removes the His6 tag is described; The NcoI cloning site may have changed the residue after the first methionine; also called Saci_0718; S. acidocaldarius CYTH enzyme; source: E. coli BL21-Gold (DE3), purified (heat step 70 °C, Ni-NTA, …)

Assays:
SaTTM (Saci_0718) = target: T1, SaTTM (Saci_0718) (Sulfolobus acidocaldarius, UniProt Q4JAT2); assay: X-ray crystal structure of the complex; assay type: binding; settings: 10 mM CaCl2, 5 mM PPi, pH 4.6, 4 °C; also 10 mM MgCl2 crystal without bound Mg2+; closed tunnel, active site
T1 construct: full ORF, C-terminal His6 (pSVA1028), expressed in E. coli BL21-Gold (DE3), heat step, IMAC, SEC; homodimer of 56 kDa

[1] = target: the molecule itself; assay: SEC; analytical Superdex 200 10/300 GL, SEC buffer (200 mM NaCl, 50 mM Tris, pH 9.0), compared with standards
[2] = substrate: O=P(O)(O)OP(=O)(O)OP(=O)(O)O; assay: malachite green phosphate release, Michaelis-Menten fit; assay type: biochemical, Sulfolobus acidocaldarius; settings: 2 mM MgCl2, 50 mM Tris, 200 mM NaCl, pH 8.6, 75 °C, 5 nM enzyme

Molecule | X-ray crystal structure of the complex (SaTTM (Saci_0718)) | stoichiometry N [1] | Km [2] | kcat [2]
O=P(O)(O)OP(=O)(O)O [PPi, pyrophosphate] | we determined crystal structures of SaTTM in complex with pyrophosphate | – | – | –
B1 | – | 2 | 41.0 (95% CI 29.8 to 55.4) μM | 5934 s⁻¹
